Measured values from US11311577B2, “Coordinating gene expression using RNA destabilizing elements” (Chimera Bioengineering, Inc., priority 2018, dated 2022).

Test system: T-cells
Test: Removal of microRNA binding sites from an RDE: expression from constructs, GFP in T-cells
Type: cell-based
Conditions: MIR186 micro-RNA sites removed from the 3′-UTR of IL-2
Excerpt: The AU-rich element from the 3′-UTR of IL-2 has mir-181 and mir 186 microRNA binding sites. Different combinations of the microRNA sites were removed from the 3′-UTR of IL-2. When the MIR186 micro-RNA sites were removed from the 3′-UTR of IL-2 the dynamic range of expression from constructs with this UTR increased 50 fold. The modified IL-2, 3′-UTR replaces CTT in the sequence with GAA and is shown below (the new GAA is underlined in the sequence):
Different combinations of the micro-RNA sites were removed from the 3′UTR of IFNg and tested for increased expression. When the mir125 micro-RNA sites were removed from the 3′-UTR of IFN-γ the expression rate from constructs with this UTR is increased.
Expression of GFP in T-cells, transfected with the RDE-GFP plus the microRNA sites, is compared to expression of GFP in T-cells with the RDE-GFP in which the microRNA sites have been removed, following activation with CD3/CD28 beads for 24 hours. The removal of the microRNA sites increased expression of the GFP by a factor of between 2-5 after 24 hours, relative to the cells with microRNA sites.

B1: modified IL-2, 3′-UTR: IL-2 3′-UTR with MIR186 micro-RNA sites removed, CTT replaced with GAA (SEQ ID NO: 22) (nucleic acid, listed as Homo sapiens)
DNA: TAATTAAGTGCTTCCCACTTAAAACATATCAGGCCTTCTATTTATTTAAATATTTAAATTTTATATTTATTGTTGAATGTATGGTTTGCTACCTATTGTAACTATTATTCTTAATCTTAAAACTATAAATATGGATCTTTTATGATTGAATTTGTAAGCCCTAGGGGCTCTAAAATGGTTTCACTTATTTATCCCAAAATATTTATTATTATGTTGAATGTTAAATATAGTATCTATGTAGATTGGTTAGTAAAACTATTTAATAAATTTGATAAATATAAA
With B1 the “increase of dynamic range of expression” value was 50 fold.
